Assay results published in publication PMC3428623.

Target: Pbs2-HKMT (S. cerevisiae) (UniProt P08018)
Assay: proximity labelling

Pbs2-HKMT (S. cerevisiae), sequence (P08018 whole entry): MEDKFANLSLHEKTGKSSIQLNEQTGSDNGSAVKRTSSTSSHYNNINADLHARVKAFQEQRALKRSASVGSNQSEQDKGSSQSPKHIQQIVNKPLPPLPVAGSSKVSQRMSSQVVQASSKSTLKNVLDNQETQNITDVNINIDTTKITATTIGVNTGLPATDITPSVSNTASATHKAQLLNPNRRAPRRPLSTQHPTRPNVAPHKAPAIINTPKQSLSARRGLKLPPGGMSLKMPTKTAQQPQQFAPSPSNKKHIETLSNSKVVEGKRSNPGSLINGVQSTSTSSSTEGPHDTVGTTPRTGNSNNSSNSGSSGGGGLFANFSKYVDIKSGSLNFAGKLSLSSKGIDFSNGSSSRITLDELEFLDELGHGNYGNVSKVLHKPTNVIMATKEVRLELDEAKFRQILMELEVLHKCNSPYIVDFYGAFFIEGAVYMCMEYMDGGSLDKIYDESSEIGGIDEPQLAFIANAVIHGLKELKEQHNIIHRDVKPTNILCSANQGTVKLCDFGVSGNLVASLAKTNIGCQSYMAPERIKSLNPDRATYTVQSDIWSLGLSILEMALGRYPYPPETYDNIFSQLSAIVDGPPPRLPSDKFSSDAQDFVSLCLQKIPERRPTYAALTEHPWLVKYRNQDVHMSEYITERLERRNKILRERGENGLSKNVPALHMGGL

Substance	percent reduction in methylation signal in comparison with wild-type Sho1
Sho1-H3-HA Y54M mutant (natural protein)	92%
Sho1-H3-HA Y8A mutant (natural protein)	70%
